Results published in US20240052052A1.

How the values were obtained:
human CD24 (human) [1] = biological target: human CD24 (human) (UniProt P25063); assay: FACS, MDA-MB-468 cells
human CD24 (human) [2] = biological target: human CD24 (human) (UniProt P25063); assay: FACS, 293F-hCD24 cells
human CD24 (human) [3] = biological target: human CD24 (human) (UniProt P25063); assay: FACS, 5637 cells
human CD24 (human) [4] = biological target: human CD24 (human) (UniProt P25063); assay: FACS, CHOK1-hCD24 cells
human CD24 (human) [5] = biological target: human CD24 (human) (UniProt P25063); assay: FACS, MCF7 cells
human CD24 (human) [6] = biological target: human CD24 (human) (UniProt P25063); assay: FACS, SU-DHL6 cells
human CD24 (human) [7] = biological target: human CD24 (human) (UniProt P25063); assay: FACS, H1975 cells
human CD24 (human) [8] = biological target: human CD24 (human) (UniProt P25063); assay: FACS, Nalm1 cells
human CD24 (human) [9] = biological target: human CD24 (human) (UniProt P25063); assay: FACS, OCI-LY1 cells
human CD24 (human) [10] = biological target: human CD24 (human) (UniProt P25063); assay: FACS, OCI-LY7 cells
human CD24 (human) [11] = biological target: human CD24 (human) (UniProt P25063); assay: FACS, A549 cells
human CD24 (human) [12] = biological target: human CD24 (human) (UniProt P25063); assay: FACS, HT-29 cells

Sequence of human CD24 (human) (P25063 27-59): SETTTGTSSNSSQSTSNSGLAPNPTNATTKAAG

FACS MFI (human CD24 (human) [1]): 190
Max MFI (human CD24 (human) [1]): 190
FACS MFI (human CD24 (human) [2]): 185
Max MFI (human CD24 (human) [2]): 185
FACS MFI (human CD24 (human) [3]): 185
Max MFI (human CD24 (human) [3]): 185
FACS MFI (human CD24 (human) [4]): 177
Max MFI (human CD24 (human) [4]): 189
FACS MFI (human CD24 (human) [5]): 187
Max MFI (human CD24 (human) [5]): 187
FACS MFI (human CD24 (human) [6]): 188
FACS MFI (human CD24 (human) [7]): 203
Max MFI (human CD24 (human) [7]): 203
FACS MFI (human CD24 (human) [8]): 175
Max MFI (human CD24 (human) [8]): 175
FACS MFI (human CD24 (human) [9]): 197
FACS MFI (human CD24 (human) [10]): 186
FACS MFI (human CD24 (human) [11]): 167
Max MFI (human CD24 (human) [11]): 167
FACS MFI (human CD24 (human) [12]): 194
Max MFI (human CD24 (human) [12]): 194
Substance: mIgG ctrl (antibody)
